B1: Insulin-induced gene 2 protein (Homo sapiens), Q9Y5U4 (parent)
chain: MAEGETESPGPKKCGPYISSVTSQSVNLMIRGVVLFFIGVFLALVLNLLQIQRNVTLFPPDVIASIFSSAWWVPPCCGTASAVIGLLYPCIDRHLGEPHKFKREWSSVMRCVAVFVGINHASAKVDFDNNIQLSLTLAALSIGLWWTFDRSRSGFGLGVGIAFLATVVTQLLVYNGVYQYTSPDFLYVRSWLPCIFFAGGITMGNIGRQLAMYECKVIAEKSHQE
partner: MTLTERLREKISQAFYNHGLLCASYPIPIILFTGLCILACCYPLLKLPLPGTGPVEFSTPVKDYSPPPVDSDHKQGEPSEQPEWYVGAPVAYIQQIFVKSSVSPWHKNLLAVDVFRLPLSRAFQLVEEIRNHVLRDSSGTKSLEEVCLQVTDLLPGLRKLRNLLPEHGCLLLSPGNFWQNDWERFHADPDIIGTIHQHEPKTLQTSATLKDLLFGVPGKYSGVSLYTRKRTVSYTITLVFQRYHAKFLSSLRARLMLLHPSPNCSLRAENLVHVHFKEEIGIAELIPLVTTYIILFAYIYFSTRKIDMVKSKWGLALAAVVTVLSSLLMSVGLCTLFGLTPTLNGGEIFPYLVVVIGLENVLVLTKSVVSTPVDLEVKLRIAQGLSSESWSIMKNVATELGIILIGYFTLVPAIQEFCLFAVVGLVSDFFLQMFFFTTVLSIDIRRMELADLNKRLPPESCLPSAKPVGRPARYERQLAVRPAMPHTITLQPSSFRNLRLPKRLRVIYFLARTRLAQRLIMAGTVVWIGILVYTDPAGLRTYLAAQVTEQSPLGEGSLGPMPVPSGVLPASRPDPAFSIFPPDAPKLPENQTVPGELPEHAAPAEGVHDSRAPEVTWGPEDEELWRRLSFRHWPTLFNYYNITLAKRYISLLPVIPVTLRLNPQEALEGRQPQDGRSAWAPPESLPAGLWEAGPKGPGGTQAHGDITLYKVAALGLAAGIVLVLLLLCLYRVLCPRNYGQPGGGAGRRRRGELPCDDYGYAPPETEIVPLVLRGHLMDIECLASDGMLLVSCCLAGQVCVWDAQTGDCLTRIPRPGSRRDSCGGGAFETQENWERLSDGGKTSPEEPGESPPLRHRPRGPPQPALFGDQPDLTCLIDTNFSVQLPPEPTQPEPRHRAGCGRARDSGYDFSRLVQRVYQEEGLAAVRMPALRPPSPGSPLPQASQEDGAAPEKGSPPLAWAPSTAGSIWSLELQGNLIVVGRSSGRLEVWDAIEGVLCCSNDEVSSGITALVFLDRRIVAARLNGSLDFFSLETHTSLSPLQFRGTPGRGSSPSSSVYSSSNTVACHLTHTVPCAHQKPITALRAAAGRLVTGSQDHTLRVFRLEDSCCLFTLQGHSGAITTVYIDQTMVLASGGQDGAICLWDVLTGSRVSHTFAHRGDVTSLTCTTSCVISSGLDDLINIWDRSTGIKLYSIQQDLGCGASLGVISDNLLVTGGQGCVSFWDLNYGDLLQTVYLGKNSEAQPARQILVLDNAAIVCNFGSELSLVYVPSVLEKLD

Variants of: B1
Conditions: with scap_crigr SCAP

effect of a mutation on the interaction	Variant
disrupting interaction strength	F115A
decreasing interaction strength	T136A
